Experiment: yeast display, Sf9 membrane polyspecificity reagent, FACS + sequencing; frameworks hold sequencing errors
In short: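 Synthetic nanobody libraries on Saccharomyces cerevisiae BJ5465 were galactose-induced for 36–48 hours, stained 1 hour at 4 °C with 10% biotinylated, detergent-solubilized Sf9 membrane reagent and enriched on streptavidin microbeads. FACS then separated cells into low and high (top ~1%) gates by anti-HA (expression) and streptavidin (reagent binding) fluorescence. Genes were colony-PCR amplified, MiSeq 2 × 250 sequenced and CDR-length filtered. A clone's polyreactivity label is that of its gate of origin.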

Row | Sequence | polyreactivity (PSR sort gate)
1 | QVQLVESGGGLVQAGGTLRLSCAASGRIFFSYAMGWYRQAPGKERELVAAITYSGGSTYYADSVKGRFTISRDNAKNTVYLQKNSLKPEDTAVYYCNAELYEKYDYWGQGTQVTLSS | low polyreactivity
2 | QVQLVESGGGLVQAGGTLRLSCAASGRIFFTNAMRRYRQASGKESELVAAISKSGARTYYADSVKGRFTISRDNAKNTVYLQMNSLKPEDTAVYYCAGDVSVAGYYYWGEGTQVTVSS | high polyreactivity
3 | QVQLVESGGGLVQAGGTLRLSCAASGRIFPYYAMGWYRQAPGKERELVAAINSGGSTYYADSVKGRFTISRDNEKNTVYLQMNSLKPEDSAVYYCAVDPGYYDEYNYWGEGTQVTVSS | low polyreactivity
4 | QVQLVESGGGLVQAGGTLRLSCAASGRTFNTYAMGWYRLAPGKERELVAAITVPGGSTYYADSVKGRFTLSRDNAKNTVYLQMNSLKPADTAVYYCAAERPPDGYLVVGYVSTQYYYWGQGTQVTVSS | low polyreactivity
5 | QVQLVESGGGLVQAGGTLRLSCAASGRTFTYYAMGWYRQAPGKERELVATIRSGGTTNYADSVKGRFTISRDNAKNTVYLQMNSLKPEDTAEYYCARVLSYVWYYRDPYQYPDYDFWGQGTQVTGSS | low polyreactivity
6 | QVQLVESGGGLVQAGGTLRLSCAASGRTFVPYAMGWYRQAPGKERELVATISSSGGSTYYADSVKGRFTISRDNSKNTVYLQMNSLKPEDTAVYYCATADRWSSSYYRSVRWYHYDYWGQGTQVTVSS | low polyreactivity
7 | QVQLVESGGGLVQAGGTLRLSCAASGRTIRNYARGRYRQAPVKERELVAAITWSGGSTYYADSVKGRFTISRDNAKNTVYLQMNSLKPEDTAVYYCNVRYYTRTYNYWGQGTQVTVSS | high polyreactivity
8 | QVQLVESGGGLVQAGGTLRLSCAASGSIFNPYAMGWYRQAPGKDRELVATITRPGRTNYADSVKGRFTISRDHAENTVYLQMNSLKPEDTAVYYCAAYTSYGVYYWGQGTQVTVSS | high polyreactivity
9 | QVQLVESGGGLVQAGGTLRLSCAASGSIFYGNAMGWYREAPGKERQLVAAIDGTGASTYYADSVKGRFTISRDNAKNPVYLQMNSLKPEDTAVYYCNKALTSKDYPVRTVERDYWGQGTQVTVSS | low polyreactivity
10 | QVQLVESGGGLVQAGGTLRLSCAASGSTFRYNAMGWYRQEPGKEWELVAAITDSGSSTYYADSVKGRFTISRDNAKNTVYLQMNSLKPEDTAVYYCAAAGSRYAWGYVYWGQGTQVTVSS | high polyreactivity
11 | QVQLVESGGGLVQAGGTLRLSCAASGSTFSYNAMGWYRQAPGKERELVAAISGSGGRTYYADSVKGRFTISRDNAKNTVYLQMNSLKPEDTAVYYCAARVGAGWSPKYDYWGQGTQVTVSS | high polyreactivity
12 | QVQLVESGGGLVQAGGTLRLSCAASGSTFVYNAMGWYRQAPGKERDLVATITGGGSTYYADSVKGRFTISRDNAKNTVYLQMNSLKPEDTAVYYCSKRRDSYDVEYDYWGQGTQVTVSS | low polyreactivity
13 | QVQLVESGGGLVQAGGTLRLSCAASGYIFVIYAMGWYRQAPGKEREWVAAISWSGDTTYYADSVKGRFTISRDNAKNTVYLQMNSLKPEDTAVYYCNAETAYYQVDYWGQGTQVTVSS | low polyreactivity
14 | QVQLVESGGGLVQAGGTLRLSCAPSGSIFGDYVMGWYRQAPGKEWELVAAINRGGSTYYADSVKGRFTISRDNAKNTVYLQMKSLKPEDTAVYYCAAGYPSWYYGYPYDSWGQGTQVTVSS | low polyreactivity
15 | QVQLVESGGGLVQAGGTLRLSCAPSGSTFFPYAMGWYRQAPGKEREFVSAIRGSGGVSTYYADSVKGRFTISRDNAKNTVYLQMNSLKPEDTAVYYCAKYVARRVPRGFYYWGQGTQVTVSS | high polyreactivity
16 | QVQLVESGGGLVQAGGTLRLSCSATGYIFWSYAMGGYRQAPGKERELVAGITASGGSTYYADSVKGRFTISRDNAKNTVYLQMNSLKPEDTAVSYCAVALRSTPRTREVRPSPRVYYWGQGTQVTVSS | high polyreactivity
17 | QVQLVESGGGLVQAGGTLRLTCAASGSIFHWNTMGWYRHAPGKESELFATITQRGGSTYYADSVKARFTLSRDNAKNTVYLQMNSLKPEDTAVYYCAAAIYRASRRRTSYSYDYWGQGTQVTVSS | high polyreactivity
18 | QVQLVESGGGLVQAGGTLSLSCAASGFIFYRTARGWSRQAPGKDRELVAGISRVGSTYYADSVKGRFTISRDNAKNTVYLQMNSLKPEDTAVDYCAARSGYFYGYGYWGQGTQVTVSS | high polyreactivity
19 | QVQLVESGGGLVQAGRRLRLSCAASGSTFGYYAMGWYRQAPGKERELVAAITSGATTNYADSVKGRFTISRDNAKNTVYLQMNSLKPEDTAVYYCAAGFQTRTPLNEFDNWGQGTQVTVSS | low polyreactivity
20 | QVQLVESGGGLVQAGRSLRISCAASGSIFVNNAMGWYRQAPGKERELVAAISLSGGSTYYADSVTGRFTISRDTAKNTVYLQMTSLKPEDTAVYYCATRRSHYGKYDYWGQGTQVTVSS | high polyreactivity
21 | QVQLVESGGGLVQAGRSLRLICAASGFTSHVYAMGWYRQAPGKERELVAAISSGSSTYYADSVKGRFTISRDNAKNTVYLQRNSLKPEDTAVYYCATTHKTLRRYESWGQGTQVTVSS | low polyreactivity
22 | QVQLVESGGGLVQAGRSLRLSCAASGFIFRRYAMGWYRQAPGKEREFVAAISSGDDTDYADSVKGRFTISRDNAKNTVYLQMNSLKPEDTAVYYCAADHRYSVKYYYWGQGTQVTVSS | low polyreactivity

Row | Sequence | polyreactivity (PSR sort gate)
23 | QVQLVESGGGLVQAGRSLRLSCAASGFIFSGNVMGWYRQAPGKERELVAAITSSGGSTYYADSVKGRFTISRDNAKNTVYLQMNSLKPEDTAVYYCATRYGGRYYWGQGTQVTVSS | high polyreactivity
24 | QVQLVESGGGLVQAGRSLRLSCAASGFTFGYYAMGWYRQPPGKERELVAAISWNGGRTYYADSVKGRFTISRDNAKNTVYLQMISLKPEDTAVYYCAADYRFYSPTQYTYDYWGQGTQVTVSS | high polyreactivity
25 | QVQLVESGGGLVQAGRSLRLSCAASGFTFYYNAMGWYRQAPGKERELVAAISSGGSTYYADSVKGRFTISRDNAKNTVYLQMNSLKPEDTAVYYCAADSLYYRYDFWGQGTQVTVSS | low polyreactivity
26 | QVQLVESGGGLVQAGRSLRLSCAASGITFGRNTMGWYRQAPGKERELVAAIDSGGNTYADSVKGRFTISRDNAKNTVYLQMNSLKPEDTAVYYCAVDGGEFSSYGYWGQGTQVSVSS | low polyreactivity
27 | QVQLVESGGGLVQAGRSLRLSCAASGITFIYYAMGWYRQAPGKESELVAAISKSGGRTYYADSVKGRFTISRDNAKNTVYLQMNSLKPEDTAVYYCNKLVGDDTDLYDYWGQGTQVTVSS | high polyreactivity
28 | QVQLVESGGGLVQAGRSLRLSCAASGRIFSYNAMGWYRQAPGKETELVAAITFSGGRTYYADSVKGRFTISRDNAKNTVYLQMNSLKPEDTAVYYCNAYWQGYGYDYWGQGTQVTVSS | low polyreactivity
29 | QVQLVESGGGLVQAGRSLRLSCAASGSPLYSYAMGWYRQAPGKEREFVAAITSDDGSTYYADSVKGRFTISRDNAKNTVYLPLTSLKPEDTAVYYCATAASVEYNYWGQCTQVTVSS | low polyreactivity
30 | QVQLVESGGGLVQAGRSLRLSCAASGSTFSWNTMGWYRPAPGIERELVAAINSGGSTYYADSVKGRFTISRDNAKNTVYLQMNSLKPEDTAFYYCAARTKYYGRFDYWGQGTQVTVCS | low polyreactivity
31 | QVQLVESGGGLVQAGRSLRLSCAASGSTFWFYAMGWYRQAPGKERELVASINSGGSTYYADSVKGRFTISRDNAKNTVYLQMNSLKPEDTAVFYCAADAYSWWGRWERYPYTTMYYWGQGTQVTVSS | low polyreactivity
32 | QVQLVESGGGLVQAGRSLRLSCAASGSTFYYYTMGWYRQEPGKERELVAAISFIGGSTYYADSVKGRFTISRDNAKNTVYLQMNSLKPEDTAVYYCAAESYPLSYSSATLSPSYEYWGQGTQVTVSS | low polyreactivity
33 | QVQLVESGGGLVQAGRSLRLSCAASGSTLQDNAMGWYRQAPGKERELVAAITLNGGSTYYADSVKRRFTISRDHAKNTVYLPMNSLKPEDTAVYYCAAEYLYVGYWFDYWGQGTQVTVSS | high polyreactivity
34 | QVQLVESGGGLVQAGRSLRLSCAASGSTYSLDAMGWYRQAPGKERELVAAISWSDGSTYYADSVKGRFTISRDNAKNTVYLLMNSLKPEDTAVYYCGADSTVRPYVHSGDYWGQCTQVTVSS | low polyreactivity
35 | QVQLVESGGGLVQAGRSLRLSCAASGYTFSRYTMGWYRQAPGKEWELVAAISSSGGSTYADSVKGRFTISRDNAKNTVYLQMTSLKPEDTGVYYCNRYYRRATKVGDWGQGTQVTVSS | high polyreactivity
36 | QVQLVESGGGLVQAGRSLRLSCAASGYTIRYYAMGWYRQAPGKERELVAAITNRGGTYYADSVKGRFTISRDNAKNTVYLQLNSLKPEDNAVYYCAARYYWIDFKFGGPRDYWGQGTQVTVSS | high polyreactivity
37 | QVQLVESGGGLVQAGRSLRLSCAASVYILYHNAMGWYRQAPGKERELVAAISYSGGRTYYADSVKGRFTISRDNAKNTVYLQMNSLKPEDTSVYYCNALSVWRTGRGQEFDYWGQGTQVTVSS | high polyreactivity
38 | QVQLVESGGGLVQAGRSLRLSCASSGRIFWDYAMGWYRQAPGKERELVAAISWGSGRTYYADSVKGRFTISRDNAKNTVYLQMNSLKPADSAVDYCAARSSYRKMDYWGQGTQVTVSS | high polyreactivity
39 | QVQLVESGGGLVQAGRSLRLSFADSGVIVTSNAMGWYRQAPGKEREFVADITSSDSTYYADSVKGRFTISRDNAKNTVYLQMNSLKPEDTAVYYCAARGTTVRAYGYGFGYWGQGTQVTVSS | low polyreactivity
40 | QVQLVESGGGLVQAGRSLRLSSAASGNTFAGNAMGWYRQAPGKERELVAAISWSGTRTYYADSVKGRFTISRDNAKNTVYLQMNSLKPEDTAVYYCAKLSTNKEYYWGQGTQVTVSS | high polyreactivity
41 | QVQLVESGGGLVQAGRSLRLTCAASGIIFIGNAMGWYRQATGKERELVAAISRRGGRTYYADSVKGRFTISRDNAKNTVYLQMFSLKPEDTAVYSCNAEITVNDDDYWGQGTQVTVSS | high polyreactivity
42 | QVQLVESGGGLVQAGRSLRLTCAASGRIFRRYAMGWSRQAPGKERELVAAIRTSGGNTYYADSVKGRFTISRDNAKNTVYLQMNSLKPEDTAVYYCAAERGRLVAIASDYWGQGTQVTVSS | high polyreactivity
43 | QVQLVESGGGLVQAGRSLRLTCAASGRTLGYNAMGWYRQPPGKERELVAAITYSGSRTYYADSVKGRFTISRDNAKNTVYLQMNSLKPEDTAVYYCAAGGYIAYYYYRFDYWGQGTQVTVSS | high polyreactivity

From the nanobody polyreactivity screen of Harvey et al. (2022)
